Experimental findings from US7265263B1, “Potato transcription factors, methods of use thereof, and a method for enhancing tuber development” (Iowa State University Research Foundation, Inc., priority 2002, dated 2007) are described below.

In one assay the test system is CaMV 35S promoter. Put plainly: Transcription assay, GUS reporter driven by CaMV 35S promoter in tobacco protoplasts. It counts as cell-based, cauliflower mosaic virus. How it is done:
FIGS. 24A-C show schematics of constructs (FIG. 24A) and the repression effect of StBEL-05 and POTH1 on the ga20ox1 promoter (FIG. 24B) and on the 35S CaMV promoter (FIG. 24C). The construct with the LUC gene under the control of the cauliflower mosaic virus (CaMV) 35S promoter was used as an internal control. Each transfection was performed three times. Relative GUS-LUC activity was calculated with reporter alone set as 100%. Data are means±SE.
For each transfection analysis, 700 μL of tobacco protoplasts (prepared as described above) were mixed with 30 μL 2 M KCl and plasmid DNA in an electroporation cuvette with 0.4-cm electrode gap. […]
Luciferase assays were performed by injecting 100-μL luciferase substrate (Promega, Madison, Wis.) into 20 μL of extract and measuring the emitted photons for 15 seconds in a TD-20 luminometer (Turner Designs, Sunnyvale, Calif.). […] A fluorescence multiwell plate reader, Fluoroskan II (MTX labs, Vienna, Va.), was used to measure GUS activity at 365 nm (excitation) and 455 nm (emission). Each sample was measured three times for both LUC and GUS activity. Relative GUS-LUC activity was calculated by dividing the ratio of GUS activity to LUC activity from different effectors with the ratio from reporter plasmid alone. Relative activities calculated from three transfection replications were presented as a mean±SE.

The subject of assay [1] is POTH1. Put plainly: Yeast two-hybrid interaction with POTH1. It counts as binding, Solanum tuberosum. The following applies: nutritional selection and lacZ activation, yeast AH109. From the text:
The Matchmaker two-hybrid system (Clontech, Calif.) was used for the yeast two-hybrid screen. Yeast transformation and plasmid rescue into DH5-α E. coli cells were according to the manufacturer's instructions. Full-length POTH1 was cloned into the pBridge (Clontech, Calif.) vector and used as bait to screen the potato (S. tuberosum ‘Desireé’) stolon cDNA library in pAD-GAL4-2.1 (Stratagene, Calif.). Positive interactions were confirmed by cotransforming yeast strain AH109 with each purified pAD plasmid and pBridge: POTH1 and plating on -leucine/-tryptophan (transformation control) and -leucine/-tryptophan/-histidine/-adenine (selection) nutrient medium. Induction of the AH109 reporter gene, lacZ, was measured with a yeast β-galactosidase assay kit (Pierce Chemicals). β-galactosidase activity (FIG. 9B) was determined from a known density of yeast cells and calculated as 1000×OD420/time of color reaction (minutes)×volume of yeast culture (ml)×OD600.
The StBEL-05 deletion constructs were amplified by PCR, then cloned into the vector, pGAD, in-frame with the GAL4 activation domain. POTH1 deletion constructs were amplified by PCR, and cloned into pBridge (Clontech) in-frame with the GAL4 binding domain. Sequencing of selected cDNAs and constructs was performed at the Iowa State University DNA Facility. For deletion analysis, modified constructs of POTH1 were cloned into the pBridge vector for fusion with the DNA-binding domain of GAL4 (FIG. 10A). For StBEL-05, constructs were cloned into the pGAD vector for fusion with the activating domain of GAL4 (FIG. 10B). Deletion constructs were made from both the amino and carboxy termini. These mutants were then tested for interaction in the yeast two-hybrid system by cotransforming into yeast strain AH109 with the corresponding full-length partner (StBEL-05 in pGAL4 or POTH1 in pBridge). All constructs were sequenced to verify that they were in-frame. Positive interactions were verified for lacZ induction by using a β-galactosidase assay (Pierce Chemical Company). For POTH1, seven deletion constructs were tested (FIG. 10A). For the BEL TFs, a fusion construct of StBEL-05 (653 aa of StBEL-05 sequence) and nine deletion constructs were tested (FIG. 10B).

The test system of assay [2] is POTH1. In words: In vitro binding assay (immunoprecipitation) with POTH1. The arrangement: species or system Solanum tuberosum. The following applies: in vitro transcription/translation, anti-GAD. How it is done: In vitro binding experiments were performed as described by Ni et al., “PIF3, a Phytochrome-Interacting Factor Necessary for Normal Photoinduced Signal Transduction, is a Novel Basic Helix-Loop-Helix Protein,” Cell 95:657-667 (1998), which is hereby incorporated by reference in its entirety. The full-length sequence for POTH1 was cloned into a pET17b/GAD fusion cassette and transcribed under the control of the T7 promoter. […] Each 50 μl TnT reaction contained 2.0 μg of template plasmid DNA and 20 μmol (20 μCi) of labeled ^35S-methionine. The POTH1:GAD/BEL complex was immunoprecipitated with anti-GAD antibodies (Santa Cruz Biotechnology, Calif.). The proteins from the pellet (one-half the fraction) and for the prey (one-fourth of the reaction volume) were resolved on a 10% SDS-PAGE gel and visualized by autoradiography.
Sequence of POTH1 (as listed by the source): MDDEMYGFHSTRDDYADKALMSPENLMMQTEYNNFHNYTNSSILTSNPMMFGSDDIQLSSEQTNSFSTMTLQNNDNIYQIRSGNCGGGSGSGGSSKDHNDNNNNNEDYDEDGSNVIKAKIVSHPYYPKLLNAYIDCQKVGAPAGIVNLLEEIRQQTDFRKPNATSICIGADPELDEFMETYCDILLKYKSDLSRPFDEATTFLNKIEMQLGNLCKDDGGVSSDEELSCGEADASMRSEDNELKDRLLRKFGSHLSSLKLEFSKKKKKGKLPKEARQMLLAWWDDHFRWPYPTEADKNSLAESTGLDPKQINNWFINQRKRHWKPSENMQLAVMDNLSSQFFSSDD

The target in a further assay is T1, GAD protein alone (UniProt P04386 768-881, limits assumed).
T1 construct: Control of the immunoprecipitation
T1 sequence (looked up): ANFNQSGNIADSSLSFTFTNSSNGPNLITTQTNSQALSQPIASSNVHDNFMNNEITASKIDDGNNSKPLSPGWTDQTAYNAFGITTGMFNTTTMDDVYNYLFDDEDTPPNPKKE
In words: in vitro translated 35S-labelled proteins, immunoprecipitation with anti-GAD antibodies. How it is done:
In vitro binding experiments were performed as described by Ni et al., "PIF3, a Phytochrome-Interacting Factor Necessary for Normal Photoinduced Signal Transduction, is a Novel Basic *Helix*-Loop-Helix Protein," *Cell* 95:657-667 (1998), which is hereby incorporated by reference in its entirety. The full-length sequence for POTH1 was cloned into a pET17b/GAD fusion cassette and transcribed under the control of the T7 promoter. The BEL cDNAs were cloned into pGEM11Z vectors and were transcribed under the control of the T7 promoter. ^35S-methionine labeled bait and prey proteins were synthesized using the TnT in vitro transcription-translation kit (Promega) according to the manufacturer's protocols. Each 50 μl TnT reaction contained 2.0 μg of template plasmid DNA and 20 μmol (20 μCi) of labeled ^35S-methionine. The POTH1:GAD/BEL complex was immunoprecipitated with anti-GAD antibodies (Santa Cruz Biotechnology, Calif.). The proteins from the pellet (one-half the fraction) and for the prey (one-fourth of the reaction volume) were resolved on a 10% SDS-PAGE gel and visualized by autoradiography.

B1: StBEL-05 protein from pGEM11Z (in vitro transcription/translation) (other)
chain: MYYQGTSDNTNIQADHQQRHNHGNSNNNNIQTLYLMNPNNYMQGYTTSDTQQQQQLLFLNSSPAASNALCHANIQHAPLQQQHFVGVPLPAVSLHDQINHHGLLQRMWNNQDQSQQVIVPSSTGVSATSCGGITTDLASQLAFQRPIPTPQHRQQQQQQGGLSLSLSPQLQQQISFNNNISSSSPRTNNVTIRGTLDGSSSNMVLGSKYLKAAQELLDEVVNIVGKSIKGDDQKKDNSMNKESMPLASDVNTNSSGGGESSSRQKNEVAVELTTAQRQELQMKKAKLLAMLEEVEQRYRQYHHQMQIIVLSFEQVAGIGSAKSYTQLALHAISKQFRCLKDAIAEQVKATSKSLGEEEGLGGKIEGSRLKFVDHHLRQQRALQQIGMMQPNAWRPQRGLPERAVSVLRAWLFEHFLHPYPKDSDKIMLAKQTGLTRSQVSNWFINARVRLWKPMVEEMYLEEVKNQEQNSTNTSGDNKNKETNISAPNEEKHPIITSSLLQDGITTTQAEISTSTISTSPTAGASLHHAHNFSFLGSFNMDNTTTTVDHIENNAKKQRNDMHKFSPSSILSSVDMEAKARESSNKGFTNPLMAAYAMGDFGRFDPHDQQMTANFHGNNGVSLTLGLPPSENLAMPVSQQNYLSNDLGSRSEMGSHYNRMGYENIDFQSGNKRFPTQLLPDFVTGNLGT
notes: 35S-methionine labelled prey; also called p11Z-5
B1: the “effect on the activity of the CaMV 35S promoter” value in the assay on CaMV 35S promoter is given as “Neither StBEL-05 nor POTH1 showed any effect”. The “interaction with POTH1” value with POTH1 [1] is on record as “showed selective interaction”. For the same molecule, the “pull-down by POTH1 in immunoprecipitation” value in the assay with POTH1 [2] was “pulled down”. Besides, the binding result with GAD protein alone is listed as “no binding”.
